Measurements: article doi:10.1101/2024.06.06.597810 (bioRxiv, 2024)
Substitutions are numbered along the chain they refer to. Names and notes keep the numbering of the source.

B1: S2P6 UCA VH M48I/S56H double mutant Fab (Fab, V domains shown)
VH: QVQLVQSGAEVKKPGASVKVSCKASGYTFTSYYMHWVRQAPGQGLEWIGIINPSGGHTSYAQKFQGRVTMTRDTSTSTVYMELSSLRSEDTAVYYCARGSPKGAFDYWGQGTLVTVSS
VL: not shown
notes: source: Expi293F, co-transfected, purified (IgG-CH1-XL beads)
B2: S2P6 UCA VH Y32Q/M48I/S56H triple mutant Fab (Fab, V domains shown)
VH: B1 VH with Y32Q
VL: not shown
notes: as for B1

Target: T1, Biotin-labeled BatCoV-BtkY72 stem helix peptide (Bat SARS-related coronavirus BtKY72 …, UniProt A0A3Q8AKM0, biotin (position not given))
T1 construct: source: synthetic peptide, bought: GenScript
Experiment: BLI
Conditions: both partners purified

Binder | binding result
B1 | binds
B2 | binds
